Data set [1] addresses T1, TreCel7A (Trichoderma reesei, UniProt P62694).
T1 construct: gene cbh1
T1 sequence (P62694 18-451): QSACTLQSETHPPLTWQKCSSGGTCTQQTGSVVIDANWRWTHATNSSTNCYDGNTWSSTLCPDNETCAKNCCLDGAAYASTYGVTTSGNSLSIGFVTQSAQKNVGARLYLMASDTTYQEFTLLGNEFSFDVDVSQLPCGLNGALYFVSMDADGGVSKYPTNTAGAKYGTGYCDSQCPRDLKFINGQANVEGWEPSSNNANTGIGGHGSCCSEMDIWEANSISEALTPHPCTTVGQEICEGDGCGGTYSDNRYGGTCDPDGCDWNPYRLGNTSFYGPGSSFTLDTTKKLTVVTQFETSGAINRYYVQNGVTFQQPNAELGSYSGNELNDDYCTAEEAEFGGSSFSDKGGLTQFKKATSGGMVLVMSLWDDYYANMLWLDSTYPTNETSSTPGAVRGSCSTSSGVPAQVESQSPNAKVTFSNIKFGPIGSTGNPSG
Kind of data set: competitive (product) inhibition of pNP-Lac hydrolysis, pH […] °C. The class given is biochemical.

Data set [2] deals with T2, TatCel7A (Trichoderma atroviride, UniProt G9NTY1).
T2 construct: gene TRIATDRAFT_88458
The data set is described as above. It is filed as biochemical.

The target in data set [3] is T3, ThaCel7A (Trichoderma harzianum, UniProt Q9P8P3).
T3 construct: gene cbh1
T3 sequence (Q9P8P3 18-443): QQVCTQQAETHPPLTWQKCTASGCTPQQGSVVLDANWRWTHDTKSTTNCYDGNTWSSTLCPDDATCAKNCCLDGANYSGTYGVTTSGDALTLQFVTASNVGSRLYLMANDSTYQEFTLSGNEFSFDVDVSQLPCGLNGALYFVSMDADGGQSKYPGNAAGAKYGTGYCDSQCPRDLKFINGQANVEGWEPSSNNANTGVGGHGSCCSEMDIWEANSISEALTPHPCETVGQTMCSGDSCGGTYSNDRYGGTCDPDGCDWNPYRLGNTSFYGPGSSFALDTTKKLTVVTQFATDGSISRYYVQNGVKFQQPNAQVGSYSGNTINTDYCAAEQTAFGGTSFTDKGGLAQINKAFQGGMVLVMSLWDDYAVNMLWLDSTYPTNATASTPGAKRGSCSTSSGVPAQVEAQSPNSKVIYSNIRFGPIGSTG
The description is as above. The class given is biochemical.

Substrate in data set [4]: [H][C@@]1(O[C@H]2[C@H](O)[C@@H](O)[C@H](Oc3ccc([N+](=O)[O-])cc3)O[C@@H]2CO)O[C@H](CO)[C@H](O)[C@H](O)[C@H]1O
Kind of data set: purified protein. It is filed as biochemical, Trichoderma harzianum. The following applies: subsites (−[…]/−[…]/+[…]) where pNP-Lac should bind for hydrolysis; pH 4.5; 30.0 °C.

Substrate in data set [5]: [H][C@@]1(O[C@H]2[C@H](O)[C@@H](O)[C@H](Oc3ccc([N+](=O)[O-])cc3)O[C@@H]2CO)O[C@H](CO)[C@H](O)[C@H](O)[C@H]1O
As to the kind of experiment: purified protein. The following applies: subsites (−[…]/−[…]/+[…]) where pNP-Lac should bind for hydrolysis; pH 4.5; 30.0 °C. The class given is biochemical, Trichoderma reesei.

Substrate in data set [6]: [H][C@@]1(O[C@H]2[C@H](O)[C@@H](O)[C@H](Oc3ccc([N+](=O)[O-])cc3)O[C@@H]2CO)O[C@H](CO)[C@H](O)[C@H](O)[C@H]1O
As to the kind of experiment: purified protein. It is filed as biochemical, Trichoderma atroviride. The following applies: subsites (−[…]/−[…]/+[…]) where pNP-Lac should bind for hydrolysis; pH 4.5; 30.0 °C.

In the case of `OC[C@H]1O[C@@H](O[C@H]2[C@H](O)[C@@H](O)C(O)O[C@@H]2CO)[C@H](O)[C@@H](O)[C@@H]1O` (stereo partly drawn) [cellobiose], the inhibition constant Ki in data set [1] came out at 24 µM; in data set [2] it was 72 µM; in data set [3], 49 µM.

B1: ThaCel7A (Trichoderma harzianum) (protein)
chain: T3 sequence (Q9P8P3 18-443)
As to B1, in data set [4], the Km stood at 900 µM, the turnover number (kcat) came to 0.067 s⁻¹ and the kcat/Km was 75 M⁻¹ s⁻¹.

B2: TreCel7A (Trichoderma reesei) (protein)
chain: T1 sequence (P62694 18-451)
In the case of B2, in data set [5], the Michaelis constant (Km) is 720 µM, the kcat was found to be 0.057 s⁻¹ and the specificity constant (kcat/Km) came out at 79 M⁻¹ s⁻¹.

B3: TatCel7A (Trichoderma atroviride IMI 206040) (protein)
chain: QQVCTTQAETHPALSWSKCTSGGSCTTQAGKVVLDANWRWTHAYPSGNNCYNGNTWDATLCPDDATCAKNCCLEGADYSGTYGVTTSGNQLTIDFVTQSANKNVGARLYLMASDTAYEEFTLLNNEFSFDVDVSALPCGLNGALYFVSMDADGGASKYPTNLAGAKYGTGYCDSQCPRDLKFISGQANVEGWQPSSNNANTGIGGHGSCCSEMDIWEANSISQALTPHPCETVGQVTCSGDDCGGTYSNNRYGGTCDPDGCDWNPYRLGNHTFYGPGSGFTVDTTKKITVVTQFSSTGINRYYVQNGVKFVQPNASGLSGYTGNTINSAYCSAEQTAFGGTSFTDKGGLTQMNKALSGGMVLVLSLWDDYAANMLWLDSTYPTNDTASTPGAARGTCSTSSGVPATVEQQSPNSKVVFSNIKFGPIGSTG
Consider B3, for which, in data set [6], the Km stood at 1000 µM, the kcat was 0.019 s⁻¹ and the kcat/Km was found to be 19 M⁻¹ s⁻¹.

Source of the values: article PMC5766984, “Correlation of structure, function and protein dynamics in GH7 cellobiohydrolases from Trichoderma atroviride, T. reesei and T. harzianum” (Biotechnology for Biofuels, 2018).
